target: Clec12A on cells (Clec12A over-expressing CHO-S cells; U937 cells endogenously expressing Clec12A) (UniProt Q5QGZ9); assay: flow cytometry, serial dilution, on U937 cells endogenously expressing Clec12A
Sequence (Q5QGZ9 whole entry): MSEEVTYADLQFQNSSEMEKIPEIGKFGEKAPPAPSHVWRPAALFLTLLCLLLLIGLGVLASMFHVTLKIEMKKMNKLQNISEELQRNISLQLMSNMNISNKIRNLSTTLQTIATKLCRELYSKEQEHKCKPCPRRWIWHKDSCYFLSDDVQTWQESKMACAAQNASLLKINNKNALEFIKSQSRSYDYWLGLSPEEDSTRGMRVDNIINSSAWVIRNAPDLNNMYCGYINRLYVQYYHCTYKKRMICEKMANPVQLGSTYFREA

| EC50 | Binder |
| --- | --- |
| 0.621 nM | anti-Clec12A antibody A (antibody, V domains shown) VH: QVQLQESGPGLVKPSETLSLTCTVSGGSISTYYWSWIRQPPGKGLEWIGYIYYSGSTKYNPSLKSRVTISVDTSKNLFSLKLSSVTAADTAVYYCAREDYYGSGSPFDYWGQGTLVTVSS VL: IQMTQSPSSLSASVGDRVTITCRASQGIRYDLGWYQQKPGKAPKLLIYAASSLQSGVPSRFSGSGSGTDFTLTISSLQPEDFATYYCLQDYNFPRTFGQGTKVEIK |
| 3.36 nM | anti-Clec12A antibody B (antibody, V domains shown) VH: QVQLVESGGGVVQPGRSLRLSCAASGFTFSSYGMHWVRQAPGKGLEWVAVISYDGSDKYYVDSVKGRFTISRDNSKNTLYLHMNSLRAEDTAVYYCARDKGYYFDYWGQGTLVTVSS VL: EIVMTQSPATLSLSPGERATLSCRASQSVGNRYLSWYQQKPGQAPRLLIYGASTRATGIPARFSGSGSGTDFTLTISSLQPEDFAVYYCQQDYNLPLTFGGGTKVEIK |
| 3.35 nM | anti-Clec12A antibody C (antibody, V domains shown) VH: QVQLVESGGGVVQPGRSLRLSCAASGFTFSSYGMHWVRQAPGKGLEWVAVISYDGSDKYSADSVKGRFNISRDNSKNTLYLQMNSLRAEDTAVYYCARDGSRYFDYWGQGTLVTVSS VL: EIFMTQSPATLSLSPGERATLSCRASQSVHSKYLSWYQQKPGQAPSLLIYGASTRATGIPARFSGSGSGTDFTLTISSLQPEDFAVYYCQQDYNLPITFGQGTRLEIK |

— patent publication US20230111279A1
